Starred links: 1 amine or outer side, 2 acyl side, 3 side chain; linkers in the order of their positions; H or OH if unused. Positions of bridges follow the written chain, without caps; N, C: chain ends. Non-standard residues stand in square brackets, D forms with d. Groups on a side chain read outwards from the residue. *: point of attachment. Trp(1-Me) = Cn1cc(C[C@H](N)C(=O)O)c2ccccc21; C18 diacid = O=C(O)CCCCCCCCCCCCCCCCC(=O)*; C16 diacid = O=C(O)CCCCCCCCCCCCCCC(=O)*; γGlu = O=C(O)[C@H](CCC(=O)[*:2])N[*:1]; AEEA = NCCOCCOCC(=O)O; Sar = CNCC(=O)O

The values that follow come from patent US11965039B2, “Compstatin analogues and their medical uses” (priority 2018, dated 2024).

Test [1] addresses T1, Human C3 (Complement tech cat #A113c) (human, UniProt P01024 23-1663). The experiment in a line: cell-based or functional assay.
For test [2], the target named is T1, Human C3 (Complement tech cat #A113c). The experiment in a line: SPR (Biacore T200), human C3 immobilised, peptide injected, 1:1 fit. The protocol:
Surface plasmon resonance (SPR) was used to characterize peptides with respect to their binding affinity (Kd) for C3. Human C3 (Complement tech cat #A113c) was immobilised on individual flow cells of CM5 sensor chips (GE Healthcare) using standard amine coupling to a density of approximately 3000 resonance units (RU) in a buffer consisting of 10 mM phosphate pH 7.4, 150 mM NaCl, 0.05% Tween20.
For interaction experiments a multi-cycle experiment approach was used and performed using a BiacoreT200™ instrument (GE Healthcare) at 25° C. Peptides were injected in increasing concentration series (6-8 different concentrations) for 60-120 sat a flow rate of 30 µL/min in a buffer consisting of 10 mM Tris buffer at pH 7.4, with 150 mM NaCl and 0.05% Tween20. This was followed by a dissociation period for up to 10 min. The C3 surface was regenerated between runs by a 45 s injection of 3 M MgCl_2.

T1 sequence (P01024 23-1663 limits assumed): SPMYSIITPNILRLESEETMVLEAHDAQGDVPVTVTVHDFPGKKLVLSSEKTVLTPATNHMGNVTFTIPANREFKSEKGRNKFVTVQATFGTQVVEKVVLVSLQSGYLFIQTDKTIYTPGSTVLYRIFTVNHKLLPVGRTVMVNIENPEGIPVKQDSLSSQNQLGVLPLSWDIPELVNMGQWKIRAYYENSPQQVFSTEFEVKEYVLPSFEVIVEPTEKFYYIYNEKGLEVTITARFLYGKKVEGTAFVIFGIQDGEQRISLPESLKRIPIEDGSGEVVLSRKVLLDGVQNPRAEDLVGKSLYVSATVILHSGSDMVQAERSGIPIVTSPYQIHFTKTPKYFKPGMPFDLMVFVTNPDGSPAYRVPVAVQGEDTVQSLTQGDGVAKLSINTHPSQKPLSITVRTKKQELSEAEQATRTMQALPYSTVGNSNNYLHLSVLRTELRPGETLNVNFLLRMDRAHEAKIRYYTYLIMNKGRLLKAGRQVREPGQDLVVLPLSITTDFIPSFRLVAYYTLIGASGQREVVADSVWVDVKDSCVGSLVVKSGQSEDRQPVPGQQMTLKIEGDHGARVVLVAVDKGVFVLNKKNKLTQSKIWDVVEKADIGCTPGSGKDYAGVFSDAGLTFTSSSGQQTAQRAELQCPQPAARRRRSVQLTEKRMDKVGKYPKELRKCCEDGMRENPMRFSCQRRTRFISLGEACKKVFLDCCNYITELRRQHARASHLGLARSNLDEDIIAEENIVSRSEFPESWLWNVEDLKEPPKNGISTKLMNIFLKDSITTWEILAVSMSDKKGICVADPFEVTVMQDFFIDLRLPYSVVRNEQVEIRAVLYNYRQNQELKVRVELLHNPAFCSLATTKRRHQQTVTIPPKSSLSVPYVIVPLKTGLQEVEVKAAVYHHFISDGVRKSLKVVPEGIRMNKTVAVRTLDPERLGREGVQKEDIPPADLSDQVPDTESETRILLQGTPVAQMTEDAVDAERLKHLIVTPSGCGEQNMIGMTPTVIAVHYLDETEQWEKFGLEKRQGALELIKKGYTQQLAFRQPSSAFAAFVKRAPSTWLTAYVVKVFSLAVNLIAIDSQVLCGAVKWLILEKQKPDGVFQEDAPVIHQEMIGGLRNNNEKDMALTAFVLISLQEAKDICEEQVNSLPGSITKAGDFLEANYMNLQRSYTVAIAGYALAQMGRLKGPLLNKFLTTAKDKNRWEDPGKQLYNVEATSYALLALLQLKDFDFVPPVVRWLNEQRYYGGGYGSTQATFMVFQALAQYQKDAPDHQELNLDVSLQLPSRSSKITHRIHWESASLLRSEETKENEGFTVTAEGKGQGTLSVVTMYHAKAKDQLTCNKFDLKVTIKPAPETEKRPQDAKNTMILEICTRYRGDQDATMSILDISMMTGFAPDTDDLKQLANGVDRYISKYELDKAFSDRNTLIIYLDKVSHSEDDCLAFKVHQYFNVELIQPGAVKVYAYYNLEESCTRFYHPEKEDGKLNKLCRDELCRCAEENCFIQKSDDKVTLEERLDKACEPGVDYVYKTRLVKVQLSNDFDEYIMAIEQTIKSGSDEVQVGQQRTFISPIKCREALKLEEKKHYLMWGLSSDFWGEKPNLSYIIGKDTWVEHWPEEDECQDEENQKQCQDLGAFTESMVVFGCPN

B1: Compound 118 (peptide)
peptide: Ac-SEYCI[Trp(1-Me)]QDWGEHRC[Sar]EGAK([AEEA-γGlu-AEEA-Gly-γGlu-C18 diacid])-NH2
modifications: disulfide 4-14
SMILES: CC[C@H](C)[C@@H]1NC(=O)[C@@H](NC(=O)[C@H](Cc2ccc(O)cc2)NC(=O)[C@H](CCC(=O)O)NC(=O)[C@H](CO)NC(C)=O)CSSC[C@@H](C(=O)N(C)CC(=O)N[C@@H](CCC(=O)O)C(=O)NCC(=O)N[C@@H](C)C(=O)N[C@@H](CCCCNC(=O)COCCOCCNC(=O)CC[C@H](NC(=O)COCCOCCNC(=O)CNC(=O)CC[C@H](NC(=O)CCCCCCCCCCCCCCCCC(=O)O)C(=O)O)C(=O)O)C(N)=O)NC(=O)[C@H](CCCNC(=N)N)NC(=O)[C@H](Cc2c[nH]cn2)NC(=O)[C@H](CCC(=O)O)NC(=O)CNC(=O)[C@H](Cc2c[nH]c3ccccc23)NC(=O)[C@H](CC(=O)O)NC(=O)[C@H](CCC(N)=O)NC(=O)[C@H](Cc2cn(C)c3ccccc23)NC1=O
With B1, the “inhibition of hemolysis IC50” value in test [1] was < 100 nM. Also, the Kd in test [2] came out at 11 nM.

B2: Compound 111 (peptide)
peptide: Ac-EGSAYCI[Trp(1-Me)]QDWGEHRC[Sar]EK[γGlu]K([AEEA-AEEA-γGlu-C18 diacid])-NH2
modifications: disulfide 6-16
SMILES: CC[C@H](C)[C@@H]1NC(=O)[C@@H](NC(=O)[C@H](Cc2ccc(O)cc2)NC(=O)[C@H](C)NC(=O)[C@H](CO)NC(=O)CNC(=O)[C@H](CCC(=O)O)NC(C)=O)CSSC[C@@H](C(=O)N(C)CC(=O)N[C@@H](CCC(=O)O)C(=O)N[C@@H](CCCCN)C(=O)N[C@@H](CCC(=O)N[C@@H](CCCCNC(=O)COCCOCCNC(=O)COCCOCCNC(=O)CC[C@H](NC(=O)CCCCCCCCCCCCCCCCC(=O)O)C(=O)O)C(N)=O)C(=O)O)NC(=O)[C@H](CCCNC(=N)N)NC(=O)[C@H](Cc2c[nH]cn2)NC(=O)[C@H](CCC(=O)O)NC(=O)CNC(=O)[C@H](Cc2c[nH]c3ccccc23)NC(=O)[C@H](CC(=O)O)NC(=O)[C@H](CCC(N)=O)NC(=O)[C@H](Cc2cn(C)c3ccccc23)NC1=O
As to B2, the “inhibition of hemolysis IC50” value in test [1] is < 100 nM. In addition, the affinity in test [2], expressed as Kd, was 8.2 nM.

Consider Ac-SEFCI[Trp(1-Me)]QDWGEHRC[Sar]EGE-{AEEA-AEEA-K(γGlu-Gly-γGlu-17-carboxy-heptadecanoyl)-NH2} (disulfide 4-14) [Compound 123], for which the “inhibition of hemolysis IC50” value in test [1] is < 100 nM. Further, the affinity in test [2], expressed as Kd, was 11 nM.

As to Ac-SEYCI[Trp(1-Me)]QEWGEHRC[Sar]EGE-{AEEA-AEEA-K(γGlu-Gly-γGlu-17-carboxy-heptadecanoyl)-NH2} (disulfide 4-14) [Compound 125], the “inhibition of hemolysis IC50” value in test [1] is < 500 nM. The molecule further showed a Kd in test [2] of 71 nM.

Regarding Ac-SEFCI[Trp(1-Me)]QEWGEHRC[Sar]EGE-{AEEA-AEEA-K(γGlu-Gly-γGlu-17-carboxy-heptadecanoyl)-NH2} (disulfide 4-14) [Compound 124], the “inhibition of hemolysis IC50” value in test [1] is < 100 nM. The molecule also gave a dissociation constant (Kd) in test [2] of 31 nM.

As to Ac-SEYCI[Trp(1-Me)]QDWGEHRC[Sar]EGE-{AEEA-AEEA-K(γGlu-Gly-γGlu-17-carboxy-heptadecanoyl)-NH2} (disulfide 4-14) [Compound 117], the “inhibition of hemolysis IC50” value in test [1] was < 250 nM. For the same molecule, in test [2], the equilibrium dissociation constant (Kd) was 24 nM.

B3: Compound 53 (peptide)
peptide: Ac-EGSAFCI[Trp(1-Me)]QDWGEHRC[Sar]E-NH2
modifications: disulfide 6-16
SMILES: CC[C@H](C)[C@@H]1NC(=O)[C@@H](NC(=O)[C@H](Cc2ccccc2)NC(=O)[C@H](C)NC(=O)[C@H](CO)NC(=O)CNC(=O)[C@H](CCC(=O)O)NC(C)=O)CSSC[C@@H](C(=O)N(C)CC(=O)N[C@@H](CCC(=O)O)C(N)=O)NC(=O)[C@H](CCCNC(=N)N)NC(=O)[C@H](Cc2c[nH]cn2)NC(=O)[C@H](CCC(=O)O)NC(=O)CNC(=O)[C@H](Cc2c[nH]c3ccccc23)NC(=O)[C@H](CC(=O)O)NC(=O)[C@H](CCC(N)=O)NC(=O)[C@H](Cc2cn(C)c3ccccc23)NC1=O
B3: the “inhibition of hemolysis IC50” value in test [1] was < 100 nM. Also, the Kd in test [2] is 1.4 nM.

B4: Compound 54 (peptide)
peptide: Ac-EGSAYCI[Trp(1-Me)]QDWGEHRC[Sar]E-NH2
modifications: disulfide 6-16
SMILES: CC[C@H](C)[C@@H]1NC(=O)[C@@H](NC(=O)[C@H](Cc2ccc(O)cc2)NC(=O)[C@H](C)NC(=O)[C@H](CO)NC(=O)CNC(=O)[C@H](CCC(=O)O)NC(C)=O)CSSC[C@@H](C(=O)N(C)CC(=O)N[C@@H](CCC(=O)O)C(N)=O)NC(=O)[C@H](CCCNC(=N)N)NC(=O)[C@H](Cc2c[nH]cn2)NC(=O)[C@H](CCC(=O)O)NC(=O)CNC(=O)[C@H](Cc2c[nH]c3ccccc23)NC(=O)[C@H](CC(=O)O)NC(=O)[C@H](CCC(N)=O)NC(=O)[C@H](Cc2cn(C)c3ccccc23)NC1=O
For the molecule B4, the “inhibition of hemolysis IC50” value in test [1] is < 100 nM. In addition, the Kd in test [2] is 3 nM.

B5: Compound 107 (peptide)
peptide: {C16 diacid}-EGSEYCI[Trp(1-Me)]QDWGEHRC[Sar]E-NH2
modifications: disulfide 6-16; also: places 15-carboxy-pentadecanoyl on side chain of Glu1, mods on N-terminus
With B5, the “inhibition of hemolysis IC50” value in test [1] is < 100 nM. This molecule also came in with a dissociation constant Kd in test [2] of 6.1 nM.

B6: Compound 104 (peptide)
peptide: Ac-EGSAYCI[Trp(1-Me)]QDWGEHRC[Sar]EGK([AEEA-AEEA-γGlu-C16 diacid])-NH2
modifications: disulfide 6-16
SMILES: CC[C@H](C)[C@@H]1NC(=O)[C@@H](NC(=O)[C@H](Cc2ccc(O)cc2)NC(=O)[C@H](C)NC(=O)[C@H](CO)NC(=O)CNC(=O)[C@H](CCC(=O)O)NC(C)=O)CSSC[C@@H](C(=O)N(C)CC(=O)N[C@@H](CCC(=O)O)C(=O)NCC(=O)N[C@@H](CCCCNC(=O)COCCOCCNC(=O)COCCOCCNC(=O)CC[C@H](NC(=O)CCCCCCCCCCCCCCC(=O)O)C(=O)O)C(N)=O)NC(=O)[C@H](CCCNC(=N)N)NC(=O)[C@H](Cc2c[nH]cn2)NC(=O)[C@H](CCC(=O)O)NC(=O)CNC(=O)[C@H](Cc2c[nH]c3ccccc23)NC(=O)[C@H](CC(=O)O)NC(=O)[C@H](CCC(N)=O)NC(=O)[C@H](Cc2cn(C)c3ccccc23)NC1=O
Take B6: in test [1], the “inhibition of hemolysis IC50” value was < 100 nM. Further, in test [2], the Kd was 34 nM.

B7: Compound 106 (peptide)
peptide: Ac-SAYCI[Trp(1-Me)]QDWGEHRC[Sar]EK([γGlu-Gly-γGlu-C18 diacid])-NH2
modifications: disulfide 4-14
SMILES: CC[C@H](C)[C@@H]1NC(=O)[C@@H](NC(=O)[C@H](Cc2ccc(O)cc2)NC(=O)[C@H](C)NC(=O)[C@H](CO)NC(C)=O)CSSC[C@@H](C(=O)N(C)CC(=O)N[C@@H](CCC(=O)O)C(=O)N[C@@H](CCCCNC(=O)CC[C@H](NC(=O)CNC(=O)CC[C@H](NC(=O)CCCCCCCCCCCCCCCCC(=O)O)C(=O)O)C(=O)O)C(N)=O)NC(=O)[C@H](CCCNC(=N)N)NC(=O)[C@H](Cc2c[nH]cn2)NC(=O)[C@H](CCC(=O)O)NC(=O)CNC(=O)[C@H](Cc2c[nH]c3ccccc23)NC(=O)[C@H](CC(=O)O)NC(=O)[C@H](CCC(N)=O)NC(=O)[C@H](Cc2cn(C)c3ccccc23)NC1=O
Consider B7, for which the “inhibition of hemolysis IC50” value in test [1] was < 250 nM. This molecule registered a Kd in test [2] of 5.4 nM.
